Results as given in patent publication US20220332795A1.
Changes are numbered by the printed parent chain.

B1: SEQ ID NO 2 (designed binder, not shown: small tags and cut ends)
chain: MLPAPKNLVVSEVTEDSARLSWQGVARAFDSFMINYSELFWMGEAIVLTVPGSERSYDLTGLKPGTEYVVRIKGVKGGKGSWPLHAHFTT
B2: SEQ ID NO 35 (designed binder, not shown: small tags and cut ends)
chain: MLPAPKNLVVSRVTEDSARLSWTAPDAAFDSFPISYIESIADGEAIVLTVPGSERSYDLTGLKPGTEYWVAIVGVKGGPFSWSLSAIVTT
B3: SEQ ID NO 31 (designed binder, not shown: small tags and cut ends)
chain: MLPAPKNLVVSRVTEDSARLSWTAPDAAFDSFTIEYSEHPIDGEAIPLFVPGSERSYDLTGLKPGTEYYVRIHGVKGGWFSHPLWAFFTT
B4: SEQ ID NO 24 (designed binder, not shown: small tags and cut ends)
chain: MLPAPKNLVVSRVTEDSARLSWTAPDAAFDSFMIRYQEGTRWGEAIVLTVPGSERSYDLTGLKPGTEYIVMIAGVKGGQISLPLSAIFTT
B5: SEQ ID NO 3 (designed binder, not shown: small tags and cut ends)
chain: MLPAPKNLVVSRVTEDSARLSWTAPDAAFDSFNIEYAETRWYGEAIVLTVPGSERSYDLTGLKPGTEYVVPIDGVKGGIASKPLSAIFTT
B6: SEQ ID NO 33 (designed binder, not shown: small tags and cut ends)
chain: B5 chain with N33G, E35A, A37V, T39S, R40Y, V69N, D73Y, I79D, A80G, K82G
B7: SEQ ID NO 20 (designed binder, not shown: small tags and cut ends)
chain: MLPAPKNLVVARVTEDSARLSWTAPDAAIDSFPIDYSEYWWGGEAIVLTVPGSERSYDLTGLKPGTEYPVLITGVKGGYRSGPLSAIFTT
B8: SEQ ID NO 100 (designed binder, not shown: small tags and cut ends)
chain: MLPAPKNLVVSRVTEDSARLSWTAPDAAFDSFYIWYEEVMYLGEAIVLTVPGSERSYDLTGLKPGTEYNVPIPGVKGGHSSPPLSAIFTT
B9: SEQ ID NO 25 (designed binder, not shown: small tags and cut ends)
chain: B8 chain with Y33P, E37L, V39K, M40S, L42Q, N69V, P73I, H79R, S80D, P82C
B10: SEQ ID NO 17 (designed binder, not shown: small tags and cut ends)
chain: MLPAPKNLVVSRVTEDSARLSWTAPDAAFDSFPILYTECVYRGEAIVLTVPGSERSYDLTGLKPGTEYHVPITGVKGGGGSWPLSAIFTT
B11: SEQ ID NO 19 (designed binder, not shown: small tags and cut ends)
chain: B10 chain with P33A, L35T, C39A, V40A, Y41L, R42C, H69P, T73N, G80T, W82G
B12: SEQ ID NO 30 (designed binder, not shown: small tags and cut ends)
chain: B10 chain with P33I, L35H, T37V, C39Q, V40Q, Y41L, R42I, H69P, G79A, G80C
B13: SEQ ID NO 18 (designed binder, not shown: small tags and cut ends)
chain: B10 chain with P33N, L35M, T37H, C39I, V40I, R42V, H69P, T73E, G80T, W82G
B14: SEQ ID NO 27 (designed binder, not shown: small tags and cut ends)
chain: MLPAPKNLVVSRVTEDSARLSWTAPDAAFDSFRISYAETVRQGEAIVLTVPGSERSYDLTVETGYRNWVMILGVKGGPGSLPLSAIFTT
B15: SEQ ID NO 29 (designed binder, not shown: small tags and cut ends)
chain: MLPAPKNLVVSRVTEDSARLSWTAPDAAFDSFWIEYWEAVGFGEAIVLTVPGSERSYDLTGLKPGTEYFVGIYGVKGGYLSAPLSAIFTT
B16: SEQ ID NO 21 (designed binder, not shown: small tags and cut ends)
chain: MLPAPKNLVVSRVTEDSARLSWTAPDAAFDSFSIRYNEFIVAGEAIVLTVPGSERSYDLTGLKPGTEYDVPIAGVKGGGASWPLSAIVTT
B17: SEQ ID NO 102 (designed binder, not shown: small tags and cut ends)
chain: MLPAPKNLVVSRVTEDSARLSWQGVARAFDSFLITYREQIFAGEVIVLTVPGSERSYDLTGLKPGTEYPVWIQGVKGGSPSAPLSAEFTT
B18: SEQ ID NO 32 (designed binder, not shown: small tags and cut ends)
chain: B17 chain with P69G, W71T, Q73A, S79W, P80R, A82K, S85N, F88S
B19: SEQ ID NO 15 (designed binder, not shown: small tags and cut ends)
chain: B17 chain with Y68C
B20: SEQ ID NO 23 (designed binder, not shown: small tags and cut ends)
chain: MLPAPKNLVVSRVTEDSARLSWTAPDAAFDSFAIWYHEWYGDGEAIVLTVPGSERSYDLTGPKPGTEYRVRISGVKGGFESGPLSAIFTT
B21: SEQ ID NO 22 (designed binder, not shown: small tags and cut ends)
chain: MLPAPKNLVVSRVTEDSARLSWTAPDAAFDSFWYLELQFAGEAIVLTVPGSERSYDLTGLKPGTEYNVPITGVKGGIISFPLSAIFTT
B22: SEQ ID NO 34 (designed binder, not shown: small tags and cut ends)
chain: MLPAPKNLVVSRVTEDSARLSWTAPDAAFDSFYITYVELNLAGEAIVLTVPGSERSYDLTGLKPGTEYPVPILGVKGGSLSQPLSAIFTT
B23: SEQ ID NO 241 (designed binder, not shown: small tags and cut ends)
chain: MLPAPKNLVVSRVTEDSARLSWTAPDAAFDSFFIGYLEPQPPGEAIHLGVPGSERSYDLTGLKPGTEYNVTIQGVKGGFPSIPLFASFTT
B24: SEQ ID NO 251 (designed binder, not shown: small tags and cut ends)
chain: B23 chain with H47G, G49W, I82D, F85Q, S87V
B25: SEQ ID NO 260 (designed binder, not shown: small tags and cut ends)
chain: B23 chain with F33Y, G35A, L37A, Q40R, P42D, G49R, I82M, F85S, S87I
B26: SEQ ID NO 255 (designed binder, not shown: small tags and cut ends)
chain: B23 chain with H47L, G49F, I82T, F85S
B27: SEQ ID NO 243 (designed binder, not shown: small tags and cut ends)
chain: B23 chain with G49A, I82V, F85A, S87V
B28: SEQ ID NO 242 (designed binder, not shown: small tags and cut ends)
chain: MLPAPKNLVVSRVTEDSARLSWTAPDAAFDSFYIAYAEPRPDGEAIQLLVPGSERSYDLTGLKPGTEYSVLIHGVKGGLLSSPLYAAFTT
B29: SEQ ID NO 253 (designed binder, not shown: small tags and cut ends)
chain: B28 chain with Q47I, L49H, Y85D, A87Y
B30: SEQ ID NO 252 (designed binder, not shown: small tags and cut ends)
chain: B28 chain with Q47V, L49H, Y85D, A87F
B31: SEQ ID NO 264 (designed binder, not shown: small tags and cut ends)
chain: B28 chain with Q47N, L49S, Y85D, A87Y
B32: SEQ ID NO 254 (designed binder, not shown: small tags and cut ends)
chain: B28 chain with Q47L, L49A, Y85S, A87K
B33: SEQ ID NO 262 (designed binder, not shown: small tags and cut ends)
chain: B28 chain with Q47V, L49H, Y85Q, A87I
B34: SEQ ID NO 267 (designed binder, not shown: small tags and cut ends)
chain: B28 chain with Q47G, L49W, Y85V, A87Y
B35: SEQ ID NO 259 (designed binder, not shown: small tags and cut ends)
chain: B28 chain with L49G, Y85L, A87V
B36: SEQ ID NO 266 (designed binder, not shown: small tags and cut ends)
chain: B28 chain with Q47R, L49Q, Y85G, A87S
B37: SEQ ID NO 263 (designed binder, not shown: small tags and cut ends)
chain: B28 chain with Q47A, L49V, Y85A, A87N
B38: SEQ ID NO 256 (designed binder, not shown: small tags and cut ends)
chain: B28 chain with L49T, Y85H, A87Y
B39: SEQ ID NO 247 (designed binder, not shown: small tags and cut ends)
chain: B28 chain with Q47L, L49H, Y85R, A87S
B40: SEQ ID NO 261 (designed binder, not shown: small tags and cut ends)
chain: B28 chain with Q47L, L49Q, Y85I, A87K
B41: SEQ ID NO 245 (designed binder, not shown: small tags and cut ends)
chain: B28 chain with Q47A, L49W, Y85V, A87S
B42: SEQ ID NO 248 (designed binder, not shown: small tags and cut ends)
chain: B28 chain with Q47W, L49G, Y85H, A87T
B43: SEQ ID NO 250 (designed binder, not shown: small tags and cut ends)
chain: B28 chain with Q47L, L49R, A87K
B44: SEQ ID NO 265 (designed binder, not shown: small tags and cut ends)
chain: B28 chain with Q47V, L49E, Y85T, A87S
B45: SEQ ID NO 244 (designed binder, not shown: small tags and cut ends)
chain: B28 chain with Q47S, L49Q, Y85G, A87H
B46: SEQ ID NO 258 (designed binder, not shown: small tags and cut ends)
chain: B28 chain with Q47L, L49E, Y85V, A87F
B47: SEQ ID NO 257 (designed binder, not shown: small tags and cut ends)
chain: B28 chain with L49G, Y85R, A87Y
B48: SEQ ID NO 246 (designed binder, not shown: small tags and cut ends)
chain: B28 chain with L49H, A87F
B49: SEQ ID NO 249 (designed binder, not shown: small tags and cut ends)
chain: B28 chain with Q47V, L49E, Y85H, A87N

target: human serum albumin (human) (UniProt P02768); experiment: primary solution ELISA screen
Sequence (P02768 25-609 limits assumed): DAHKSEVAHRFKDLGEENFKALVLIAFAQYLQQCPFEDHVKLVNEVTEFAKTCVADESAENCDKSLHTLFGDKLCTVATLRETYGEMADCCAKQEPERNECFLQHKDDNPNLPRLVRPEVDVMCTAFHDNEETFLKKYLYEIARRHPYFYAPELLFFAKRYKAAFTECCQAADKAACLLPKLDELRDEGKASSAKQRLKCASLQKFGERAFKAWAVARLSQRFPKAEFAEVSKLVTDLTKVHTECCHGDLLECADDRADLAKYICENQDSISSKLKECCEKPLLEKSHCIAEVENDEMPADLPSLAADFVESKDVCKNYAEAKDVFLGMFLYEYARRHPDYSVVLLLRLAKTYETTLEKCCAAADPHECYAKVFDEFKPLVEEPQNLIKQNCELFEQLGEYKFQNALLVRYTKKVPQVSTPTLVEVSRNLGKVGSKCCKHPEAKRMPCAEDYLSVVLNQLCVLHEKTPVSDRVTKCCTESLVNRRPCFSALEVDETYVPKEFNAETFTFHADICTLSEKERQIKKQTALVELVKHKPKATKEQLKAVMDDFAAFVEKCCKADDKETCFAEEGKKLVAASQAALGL

RLU [RLU]	Binder
28400	B1
18800	B2
4650	B3
6550	B4
9950	B5
2050	B6
18400	B7
5150	B8
3850	B9
3650	B10
17900	B11
4450	B12
10400	B13
2350	B14
3750	B15
6850	B16
39700	B17
4550	B18
14400	B19
12600	B20
30000	B21
8100	B22

target: human serum albumin (human) (UniProt P02768); experiment: solution ELISA screen (luminescence)

RLU [RLU]	Binder
26600	B23
26100	B24
33400	B25
102000	B26
30900	B27
20400	B28
37700	B29
72800	B30
24400	B31
21500	B32
30900	B33
29800	B34
25400	B35
36200	B36
23800	B37
76100	B38
19000	B39
174000	B40
18400	B41
34000	B42
48400	B43
30700	B44
18000	B45
26500	B46
29800	B47
25800	B48
24100	B49
